Experimental data reported in the supplement of paper PMC7877785.
± gives the uncertainty stated by the source.

Test: self-splicing fitness, log relative to wild type (ln ratio); higher = more splicing; Tetrahymena group I intron in knt gene, E. coli kanamycin selection, DiMSum; sequences stand for … in CUCUCU…GGAGGGAAAAGUUAUCAGGCAUGCACCUGGUAGCUAGUCUUUAAACCAAUAGAUUGCAUCGGUUUAAAAGGCAAGACCGUCAAAUUGCGGGAAAGGGGUCAACAGCCGUUCAGUACCAAGUCUCAGGGGAAACUUUGAGAUGGCCUUGCAAAGGGUAUGGUAAUAAGCUGACGGACAUGGUCCUAACCACGCAGCCAAGUCCUAAGUCAACAGAUCUUCUGUUGAUAUGGAUGCAGUUCACAGACUAAAUGUCGGUCGGGGAAGAUGUAUUCUUCUCAUAAGAUAUAGUCGGACCUCUCCUUAAUGGGAGCUAGCGGAUGAAGUGAUGCAACACUGGAGCCGCUGGGAACUAAUUUGUAUGCGAAAGUAUAUUGAUUAGUUUUGGAGUACUCGUGGUCG
In short: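 Library with all eight P1ex-region intron nucleotides randomised, intron inside the knt kanamycin-resistance gene on pET-22b(+), in E. coli BL21(DE3). Cells grew overnight at 37°C or 30°C on LB agar with or without 25 μg/mL kanamycin (plus 100 μg/mL carbenicillin, 50 μM IPTG, 0.2% rhamnose), in six replicate transformations. Pooled colonies were amplicon-sequenced on Illumina HiSeq 2500. DiMSum fitness is the error-weighted combination of wild-type-normalised replicate fold changes, kanamycin versus none.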

Sequence	self-splicing fitness (ln) (30 °C)	self-splicing fitness (ln) (37 °C)
CUAGAGCAAUAUUACGCAUC	-3.92 ± 0.29	-2.65 ± 0.45
CUAGAGCAAUAUUACGCCCG	-0.259 ± 0.2	0.187 ± 0.18
CUAGAGCAAUAUUACGCGAC	-0.657 ± 0.13	0.181 ± 0.16
CUAGAGCAAUAUUACGCGUG	-0.446 ± 0.1	-0.476 ± 0.12
CUAGAGCAAUAUUACGGAGG	-1.49 ± 0.13	-1.98 ± 0.16
CUAGAGCAAUAUUACGGUAA	-3.52 ± 0.29	-1.5 ± 0.16
CUAGAGCAAUAUUACGGUCG	0.342 ± 0.11	-0.264 ± 0.13
CUAGAGCAAUAUUACGUACG	-0.818 ± 0.082	0.268 ± 0.12
CUAGAGCAAUAUUACGUAGU	-2.72 ± 0.22	-1.94 ± 0.33
CUAGAGCAAUAUUACGUAUA	-3.08 ± 0.49	
CUAGAGCAAUAUUACGUCGG	-0.971 ± 0.095	-0.975 ± 0.1
CUAGAGCAAUAUUACGUCUC	-3.75 ± 0.2	-2.76 ± 0.25
CUAGAGCAAUAUUACGUGAC	-1.08 ± 0.12	-1.31 ± 0.17
CUAGAGCAAUAUUACGUUCA	-3.21 ± 0.24	-1.36 ± 0.29
CUAGAGCAAUAUUACGUUGA	-4.21 ± 0.34	-3.11 ± 0.38
CUAUAGCAAUAUUACGAAUU	-2.02 ± 0.39	-2.26 ± 0.46
CUAUAGCAAUAUUACGACAA	-2.79 ± 0.5	-2.64 ± 0.44
CUAUAGCAAUAUUACGACGC	-3.02 ± 0.36	-2.14 ± 0.38
CUAUAGCAAUAUUACGAGCA	-2.91 ± 0.25	-2.36 ± 0.33
CUAUAGCAAUAUUACGAGUC	-2.61 ± 0.24	-2.52 ± 0.3

Sequence	self-splicing fitness (ln) (30 °C)	self-splicing fitness (ln) (37 °C)
CUAUAGCAAUAUUACGAUUC	-3.51 ± 0.26	-1.71 ± 0.21
CUAUAGCAAUAUUACGCAAU	-3.66 ± 0.24	-1.58 ± 0.21
CUAUAGCAAUAUUACGCCGG	-1.65 ± 0.21	-0.422 ± 0.25
CUAUAGCAAUAUUACGCGUA	-1.43 ± 0.31	-2.86 ± 0.31
CUAUAGCAAUAUUACGCGUG	-1.27 ± 0.1	-0.122 ± 0.12
CUAUAGCAAUAUUACGGAAC		-1.63 ± 0.49
CUAUAGCAAUAUUACGGACU		-1.89 ± 0.31
CUAUAGCAAUAUUACGGAUG	-0.942 ± 0.11	-0.343 ± 0.11
CUAUAGCAAUAUUACGGCCG	0.0895 ± 0.15	-0.314 ± 0.15
CUAUAGCAAUAUUACGGGGC		-1.7 ± 0.33
CUAUAGCAAUAUUACGUACA	-2.36 ± 0.17	-2.05 ± 0.2
CUAUAGCAAUAUUACGUAGC	-4.05 ± 0.31	-3.11 ± 0.43
CUAUAGCAAUAUUACGUGAU	-1.33 ± 0.066	-0.295 ± 0.1
CUAUAGCAAUAUUACGUUAA	-4.29 ± 0.47	-3.36 ± 0.42
CUAUAGCAAUAUUACGUUUG	-1.38 ± 0.084	-1.11 ± 0.11
CUCAAGCAAUAUUACGAACG	-1.54 ± 0.089	-0.932 ± 0.12
CUCAAGCAAUAUUACGACUU	-2.2 ± 0.18	
CUCAAGCAAUAUUACGAGAA	-1.89 ± 0.31	-1.1 ± 0.24
CUCAAGCAAUAUUACGAGAG	-3.27 ± 0.22	-1.81 ± 0.23
CUCAAGCAAUAUUACGAGCU	-4.33 ± 0.3	-4.08 ± 0.39
